± gives the half width of the 95% confidence interval.
Columns and labels:
[1] = folding stability dG unfold from trypsin proteolysis; higher = more stable
Procedure, shortened: (§1)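 Bayesian fitting of sequencing counts gave K50 for each design. Unfolding free energy followed by setting this against a sequence-predicted unfolded-state K50 and a shared folded-state K50, either per protease or with trypsin and chymotrypsin combined. The designs, under 80 residues and lacking cysteine, were digested in a PA-tagged cDNA display format at 11 threefold-diluted protease concentrations and without protease, and only those with AlphaFold2 dimer inter-PAE above 15 were kept.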

[2] = folding stability dG unfold from chymotrypsin proteolysis; higher = more stable
Procedure, shortened: as §1

[3] = folding stability dG unfold (combined trypsin and chymotrypsin); higher = more stable
Procedure, shortened: as §1

Sequence | folding stability dG unfold [1] [kcal/mol] | folding stability dG unfold [2] [kcal/mol] | folding stability dG unfold [3] [kcal/mol]
SSMYLLTVEITRPDGSVSSKTVPVNFAPGTTIDELLKALNLPKSSLATVTVTATEYSGGPPVTSTHTITLSA [r9_755_JUSTAS] | 2.02 ± 0.065 | 2.44 ± 0.052 | 2.34 ± 0.06
SSPGKITTYEVTLTLPGPRPMTSTVDPSGVMTATVPDGTKITATIVPGPGTLTITTTFPDGTTSTSTISASA [r9_99_JUSTAS] | 1.26 ± 0.061 | 1.21 ± 0.058 | 1.26 ± 0.074
SSPKIVVEVTLDGNPRTITIPSSLSLEEIKEKILEALKEEGIEDVPIEEIKIKKEEELPTEEGESKIVVSSA [r9_1053_JUSTAS] | 0.999 ± 0.066 | 2.08 ± 0.087 | 1.76 ± 0.15
SSPLDPAGRFTIEVVFTTSADGTLTATFTITAPGGVPLKTLTRSFTNPSPGKAAAVEEAEALKAEIEAAASA [r9_739_JUSTAS] | 1.3 ± 0.025 | 2.35 ± 0.047 | 1.97 ± 0.064
SSPSSVPDAVVQALKEAHPDVVSIEVTPLPPESTRISVTLKSGSGSSTVSFSIPSPEGVTRTYTVSVSNPSA [r9_678_JUSTAS] | 0.839 ± 0.063 | 1.18 ± 0.091 | 1.04 ± 0.064
SSPVSFSTSTTSPPSPSSLPDGSTLSTTTTTYTAPDGSRYTVTSTTLTPPTGPATPVSTTTTSTGSSGPSSA [r9_394_JUSTAS] | 0.514 ± 0.018 | 1.08 ± 0.043 | 0.872 ± 0.046
SSSIKTSTTTSTEPATGTTTTTTTVTYPDGTTTTTTTTTLPDGTTTVTTTTTPPDGSVTSTTTTLTSLTTTS [r1_461_JUSTAS] | 1.24 ± 0.1 | 0.655 ± 0.043 | 0.904 ± 0.17
SSSMPVTVEIEAKKLSNGKYLAKITVKDANGNELEEYEKEMDESEVEKLKEELKKKYPNMKVTMTYKDELSA [r9_374_JUSTAS] | 3.3 ± 0.34 | 4.17 ± 0.14 | 4.17 ± 0.45
SSSPLPSPVTLPNGTVVYYFPDTGLVLTLDPKTGTGTVTYVTTDPQGNPTFFPSTVTFDPPTGKVVEVVASA [r9_122_JUSTAS] | 0.904 ± 0.058 | 2.77 ± 0.033 | 2.39 ± 0.079
SSSVTRTYTVTLPGSTVSIEITEKPNPEGSTTVTITVTTTKPGGGSTTTTVTKNITGLTLEDILKEAISSSA [r9_217_JUSTAS] | 3.38 ± 0.092 | 3.68 ± 0.05 | 3.57 ± 0.057
SSVEELSPEQRREQLRELLRQIREARREGDPEEERRLLEELRRLIEQLPDEEREEVRRLLEELGLPVEELSA [r9_182_TrROS_Hall] | 4.27 ± 0.21 | 3.72 ± 0.19 | 4.05 ± 0.19
SSVEIKLYYDPVTNKYYVEITITAPPGDPAAVEARAAAVREEVKEALKAKGLVPDEIKVTVNVVSPAVPGSA [r9_117_JUSTAS] | 4.09 ± 0.15 | 4.27 ± 0.21 | 4.37 ± 0.21
SSVTLTLTAPLPDNTTVTVEVTLTPLPEKGLVVANPTVTVTTLTPDADGNLTTSSAPATFTVVVPPELAFSA [r9_1137_TrMRF] | 1.48 ± 0.061 | 2.1 ± 0.11 | 1.86 ± 0.11
STAEELATYIAKTIQKRFPPGYRITDVRIERNPNGYVELPFTIEPPNGRPWTVEIWIDADNGEIEIEIQWSA [r9_219_TrROS] | 2.47 ± 0.06 | 3.183 ± 0.017 | 2.92 ± 0.068
STMTLKELKERFPGFPPEMIEEIAERAENDPPGEEVEIYIRFPNGYPIYITVTKPDTVTIQFIPPGEPVYSA [r9_1024_TrROS] | 1.23 ± 0.089 | 1.01 ± 0.22 | 1.24 ± 0.26
SVEEFRELLPDAVIEAEPLSPDRLLIRLYVPEDPEKLNPLAERVRELAEEIERETGLPVLIEIIPVPPESSA [r9_1099_TrMRF] | 1.53 ± 0.033 | 1.27 ± 0.014 | 1.41 ± 0.028
SVKTSSSMAPPDRIVLKITDPETDKVTTITVPLDLPEDEPVAVHDPEAPSERTVAEIKALAEAGKSVSGLSA [r9_250_JUSTAS] | -0.176 ± 0.16 | -0.55 ± 0.35 | -0.142 ± 0.18

Sequence | folding stability dG unfold [1] [kcal/mol] | folding stability dG unfold [2] [kcal/mol] | folding stability dG unfold [3] [kcal/mol]
SVPIALPGVPPGFSLEEVAALITEKIKALGYTLKDIKVTPHPDNTVTITITVEKGEKTVKKVTTEINPPVSA [r9_953_JUSTAS] | 1.56 ± 0.15 | 2.95 ± 0.097 | 2.56 ± 0.36
SVRIHGPDGQWFPVDDIEFDPNNNKFTFKFPGGKHKFPLPPGWQIEIDKDNAWIRVRPMPPPPPEDKEAKSA [r9_551_TrROS] | 2.88 ± 0.24 | 2.25 ± 0.061 | 2.68 ± 0.34
SVSSKISKVVSETVEDDKRTVTIEVNVPSPVVEIYDSSGKVIKTVPLGKKTTITVTTDPKGTSVSVKVLNSA [r9_917_JUSTAS] | 0.46 ± 0.12 | 0.967 ± 0.044 | 0.697 ± 0.11
SVTITKDGNKITVTLSVNGPFTLQVNKESSTSSFSVPADESATLTIDVPNTTYKVVVEKPGQPVSTYDLLSA [r9_411_JUSTAS] | 1.8 ± 0.12 | 2.08 ± 0.17 | 1.97 ± 0.23
SVTRDPDGKITVDVDVRRTPDGFYYVEVKLQLKDGKPIFPVPAPVKNPEDGVKRMKEFAETFAKEFLKKWSA [r9_739_TrROS] | 1.35 ± 0.058 | 2.42 ± 0.087 | 2.04 ± 0.15
SVVRLPNGEWFEVDGRLVRVTVDEETGEIVDVEVYEVTVEEPPPPPPPLEVTVTVEPDAPPGATITITVTSA [r9_90_TrROS_Hall] | 1.8 ± 0.13 | 1.48 ± 0.12 | 1.5 ± 0.27
SWIPVKEIAKYIAREFGMPKENLDNIEEVDPITVHPNPDGWVQVEATIRFRNPRNGKGHEMRIEIHVPKKSA [r9_230_TrROS] | 1.66 ± 0.024 | 2.22 ± 0.11 | 1.96 ± 0.09
SWKIEIPVLVKVDPGETMDEMKDQVVEIADMIAKYMQKQGGPIEVDVDVTPDPEEGYIFVTVEIEVPPGASA [r9_1161_TrROS] | 1.03 ± 0.13 | 2.9 ± 0.13 | 2.39 ± 0.29
SWLKLPPGQKVITFQFQYPLPPGQSADDLVDNMEKELREFFGPGVKIEVNVQWDPNNGYFRVSVTIVIPKSA [r9_657_TrROS] | 1.86 ± 0.057 | 1.21 ± 0.17 | 1.63 ± 0.2
SWMLRIRNPDDGKTREIKLPNMPPTVQKDGWISITNPQFLNQLLDALPPDYKIDEVEFMPGGMHTMKVKPSA [r9_997_TrROS] | 0.0269 ± 0.17 | -0.067 ± 0.32 | 0.019 ± 0.12
SWVEIPPDKIKDLMNRFQNGDWEEIVDLLKDLGFKNVTIEPQRNNGQRYFTIWVEHPDGPVIIEMPPSDISA [r9_783_TrROS] | 2.39 ± 0.082 | 2.87 ± 0.044 | 2.72 ± 0.097
SWYHIQFWLEGNSIEELMKWAKELAKQGNFEITKISNEHMHITIEIKLKPPPPPPPPPPKEEYDGDGKPKSA [r9_830_TrROS] | 2.53 ± 0.56 | 2.37 ± 0.19 | 2.22 ± 0.46
SYDHMRKWIKQAAQERGLKVTNIDIEPTPKTNTFKMSIEIPNGREINFEFQHDKNGGWQFTIQQIKNALKSA [r9_85_TrROS] | 2.07 ± 0.084 | 2.8 ± 0.039 | 2.69 ± 0.2
SYWIRITINGQTIMFPAEDADKLLGELQSNGWRIKITDIEPDPDDDWIMFKINIRPPKPPPPPPPDPDGKSA [r9_448_TrROS] | 2 ± 0.11 | 3.47 ± 0.041 | 3.17 ± 0.34
WMWVIKVRNPKNGKKRTIMIPDDPERAKNQIKNLKKQDPNMTVEIIGIKEPEVRKAAKEAGLDDIEVEPMPS [r1_114_TrROS] | 0.758 ± 0.091 | 0.666 ± 0.34 | 0.726 ± 0.31
YKAKITSVSFIPGEGYIVFNVEVIGPDGIPATFPIVIKIEIEPEEPDPAPPVIKDPNGKVYNPIIPKWFDAS [r1_270_TrMRF] | 1.5 ± 0.043 | 2.38 ± 0.054 | 2.13 ± 0.09
YMVFIRIEVEDPKNGEEKAEIPIPIPIPPGDLKNMPPEDREKMIEEAKYFAEELAEEKGNVKIKPEIQWFES [r1_115_TrROS] | -0.246 ± 0.19 | -0.226 ± 0.66 | -0.0293 ± 0.23

Reference: the supplement of paper PMC12764529
